The values below come from patent publication EP4786492A1.

As a reminder, the Kd is the constant that tells how readily two partners part at equilibrium. In general, koff refers to the first-order rate constant of dissociation. A word on the kon: it is a measure of how fast the partners come together. Low values mean slow association, high ones fast association.

Experiment [1] concerns the target DLL3 endogenously expressed on NCI-H82 cells (UniProt Q9NYJ7). The experiment in a line: FACS on NCI-H82 cells; antibody 0.00128 nM.
Experiment [2] shares this target. The experiment in a line: FACS on NCI-H82 cells; antibody 0.8 nM.
In experiment [3] the target is human DLL3 protein (extracellular segment, His tag) (human) (UniProt Q9NYJ7). The experiment is described as follows: SPR (Biacore 8K), antibody captured on Protein A chip, DLL3 antigen in solution, 1:1 Langmuir fit. (Surface plasmon resonance follows binding to a sensor surface in real time, without labels.)
human DLL3 protein (extracellular segment, His tag) (human), sequence (Q9NYJ7 27-492): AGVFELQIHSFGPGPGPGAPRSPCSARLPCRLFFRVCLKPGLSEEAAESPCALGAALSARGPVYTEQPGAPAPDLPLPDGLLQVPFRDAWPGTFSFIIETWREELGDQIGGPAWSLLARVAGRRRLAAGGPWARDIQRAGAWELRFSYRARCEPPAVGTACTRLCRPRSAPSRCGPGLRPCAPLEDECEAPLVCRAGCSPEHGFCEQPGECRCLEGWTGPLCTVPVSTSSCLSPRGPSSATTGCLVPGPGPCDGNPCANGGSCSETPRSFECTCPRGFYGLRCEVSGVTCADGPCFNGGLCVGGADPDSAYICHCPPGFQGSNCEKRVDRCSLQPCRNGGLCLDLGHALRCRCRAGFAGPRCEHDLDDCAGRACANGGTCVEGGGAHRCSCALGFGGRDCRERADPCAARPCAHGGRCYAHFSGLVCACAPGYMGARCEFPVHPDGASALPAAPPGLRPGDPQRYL
Experiment [4] has as its target DLL3 endogenously expressed on NCI-H82 cells (UniProt Q9NYJ7). The experiment is described as follows: FACS on NCI-H82 cells; antibody 0.0064 nM.
The target is the same in experiment [5]. The experiment in a line: FACS on NCI-H82 cells; antibody 4 nM.
For experiment [6] the target is unchanged. The experiment is described as follows: FACS on NCI-H82 cells; antibody 20 nM.
The target is the same in experiment [7]. The experiment is described as follows: FACS on NCI-H82 cells; antibody 0.032 nM.
Experiment [8] shares this target. The experiment is described as follows: FACS on NCI-H82 cells; antibody 100 nM.
The target is the same in experiment [9]. The experiment is described as follows: FACS on NCI-H82 cells; antibody 0.16 nM.

DLL3 endogenously expressed on NCI-H82 cells, sequence (Q9NYJ7 27-618): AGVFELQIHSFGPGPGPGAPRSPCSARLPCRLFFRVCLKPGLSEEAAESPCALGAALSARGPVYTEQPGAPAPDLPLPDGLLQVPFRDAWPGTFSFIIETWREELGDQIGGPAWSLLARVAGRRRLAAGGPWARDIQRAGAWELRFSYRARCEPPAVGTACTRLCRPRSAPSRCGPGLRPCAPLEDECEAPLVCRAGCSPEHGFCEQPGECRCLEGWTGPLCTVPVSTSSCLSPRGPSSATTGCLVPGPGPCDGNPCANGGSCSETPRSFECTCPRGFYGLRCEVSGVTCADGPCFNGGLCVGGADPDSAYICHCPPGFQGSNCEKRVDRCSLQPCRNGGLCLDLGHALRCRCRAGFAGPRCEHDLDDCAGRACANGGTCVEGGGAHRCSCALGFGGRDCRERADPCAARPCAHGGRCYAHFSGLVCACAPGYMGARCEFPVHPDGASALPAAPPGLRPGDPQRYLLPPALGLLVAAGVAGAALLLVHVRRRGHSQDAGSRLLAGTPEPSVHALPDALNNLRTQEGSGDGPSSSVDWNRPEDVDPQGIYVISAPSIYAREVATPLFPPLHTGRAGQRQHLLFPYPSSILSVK

B1: mab006 scFv-hFc (Fc fusion, part only; not given: linker and human IgG1 Fc, not shown: a dimerising Fc or GST)
chain, part: DVQITQSPSYLAASPGETITINCRATKSISKYLAWYQEKPGKTNKLLIFSGSTLQSGIPSRFRGSGSGTDFTLTISSLEPEDFAMYYCQQHHEYPYTFGGGTKLEIKQVQLQQPGAELVRPGTSVKLSCKASGYTFTSYWMHWVRQRPGQGLEWIGVIDPSDSLANYNQEFKGKATLTVDTSSSTAYMQLSSLTSEDSAVYYCARDSTVVAPMDYWGQGTSVTVSS
For the molecule B1, the MFI in experiment [1] was found to be 123; in experiment [2] it was 422; in experiment [4], 177; in experiment [5] it was 457; in experiment [6] it was 488; in [7], 292. Also, the values for the MFI in experiment [8] and in [9] were 586 and 416, respectively. In experiment [3], this molecule had a Kd of 1.25 nM. The koff in [3] was determined as 0.000203 s⁻¹. In experiment [3], this molecule had a kon of 162000 M⁻¹ s⁻¹.

B2: Hab009VL1aVH1-hFc (Fc fusion, part only; not given: Linker and human IgG1 Fc, not shown: a dimerising Fc or GST)
chain, part: DIVMTQSPLSLPVTPGEPASISCRASQTISDYLHWYLQKPGQSPQLLIKYASQSISGVPDRFSGSGSGSDFTLKISRVEAEDVGVYYCQQGHSFPLTFGQGTKLEIKEVQLVQSGAEVKKPGASVKVSCKASGYTFTSYWMHWVRQAPGQRLEWMGTIYPGNSDTRYNQKFKDRVTITADTSASTAYMELSSLRSEDTAVYYCTRSYDYGDLDYWGQGTTVTVSS
As to B2, the MFI in experiment [1] came out at 122; in experiment [2], 722; in experiment [4], 180; in experiment [5] it was 759; in experiment [6], 815; in [7], 379. The MFI in [8] worked out at 888; in experiment [9], 673.

B3: Hab009VL2aVH1-hFc (Fc fusion, part only; not given: Linker and human IgG1 Fc, not shown: a dimerising Fc or GST)
chain, part: DIVMTQSPLSLPVTPGEPASISCRASQTISDYLHWYLQKPGQSPRLLIKYASQSISGVPDRFSGSGSGTDFTLKISRVEAEDVGVYYCQQGHSFPLTFGQGTKLEIKEVQLVQSGAEVKKPGASVKVSCKASGYTFTSYWMHWVRQAPGQRLEWMGTIYPGNSDTRYNQKFKDRVTITADTSASTAYMELSSLRSEDTAVYYCTRSYDYGDLDYWGQGTTVTVSS
Regarding B3, the MFI in [1] amounted to 124; in experiment [2], 709; in [4], 185; in experiment [5] it was 747; in experiment [6], 789; in experiment [7], 377. Further, the MFI in [8] was 870; in experiment [9] it was 671.

B4: mab014 scFv-hFc (Fc fusion, part only; not given: Linker and human IgG1 Fc, not shown: a dimerising Fc or GST)
chain, part: DIQMTQSSSSFSVSLGDRVTITCKASEDIYNRLAWYQQKPGNTPRLLISGATSLETGVPSRFSGSGSGKDFTLSITSLQTEDVATYYCQQYWSLPWTFGGGTKLEIKEVQLHQSGPELVKPGTSVKISCKASGYTFTDYYMNWVKQSHGKSLEWIGDINPNHGDTGYNQKFTGKATLTVDKSSSTAYMELRSLTSEDSAVYYCARNFFYYGTTYGWYFDVWGTGTTVTVSS
Take B4: the MFI in experiment [1] came out at 112; in [2], 667; in experiment [4] it was 134; in experiment [5] it was 702; in [6] it was 829; in experiment [7] it was 213. For the same molecule, the MFI amounted to 1190 in [8] and 429 in [9]. Further, the Kd in experiment [3] came out at 0.0547 nM. Moreover, the dissociation rate constant (koff) in [3] was found to be 4.64e-05 s⁻¹. In [3], this molecule yielded a kon of 848000 M⁻¹ s⁻¹.

B5: mab009 scFv-hFc (Fc fusion, part only; not given: Linker and human IgG1 Fc, not shown: a dimerising Fc or GST)
chain, part: DIVMTQSPATLSVTPGDRVSLSCRASQTISDYLHWYQQRSHESPRLLIKYASQSISGIPSRFSGSGSGSDFTLSINSVEPEDVGVYYCQNGHSFPLTFGAGTKLELKEVQLQQSGTVLARPGASVKMSCKTSGYTFTSYWMHWVKQSPGQGLEWIGTIYPGNSDTRYNQKFKDKAYVTAVTSASTAYMELSSLTNEESAVYYCTRSYDYGDLDYWGQGTTLTVSS
Turning to B5, the MFI in experiment [1] was 123; in [2], 674; in experiment [4] it was 175; in [5], 737; in experiment [6], 833; in experiment [7] it was 346. Moreover, the figures for the MFI in experiment [8] and in [9] were 968 and 673, respectively. In [3], this molecule gave a Kd of 0.216 nM. In experiment [3], the koff was found to be 0.00132 s⁻¹. This molecule came in with a kon in [3] of 6.13e+06 M⁻¹ s⁻¹.

B6: mab008 scFv-hFc (Fc fusion, part only; not given: linker and human IgG1 Fc, not shown: a dimerising Fc or GST)
chain, part: DIVMTQSQKFMSTSVGDRVSITCKASQNVGTAVAWYQQKPGQSPKLLIFSASIRYTGVPDRFTGSGSGTDFTLTISNMQSEDLADYFCQQYSSSPYTFGGGTKLEIKEVQLQQSGPVLVKPGASVKMSCKASGYTFTDYYMNWVKRSHGKSLEWIGIINPYNGGTSYNQKFRGKATLTVDKSSNTAYMELNSLTSEDSAVYYCSRYDYDYDVEGAMDYWGQGTSVTVSS
In the case of B6, the MFI in experiment [1] came out at 113; in [2] it was 176; in [4] it was 94; in experiment [5], 373; in [6], 438; in [7], 95. The MFI is 537 in experiment [8] and 107 in experiment [9]. Moreover, the Kd in [3] was found to be 0.381 nM. The molecule also came in with a koff in [3] of 0.00034 s⁻¹. The kon in [3] came out at 891000 M⁻¹ s⁻¹.

B7: mab015 scFv-hFc (Fc fusion, part only; not given: linker and human IgG1 Fc, not shown: a dimerising Fc or GST)
chain, part: NIVMTQSPKSMSMSVGERVTLSCKASENVGTYVSWFQQKPEQSPKLLIYGASNRYTGVPDRFTGSGSATDFTLTISSVQAEDLADYHCGQFYSFPCTFGGGTKLEIKEVKLEESGGGLVQPGGSMKLSCVASGITFSNFWMNWVRQSPEKGLEWVAQIRLKSDDYATHYAESVKGRFTISRDDSKGSVYLQMNNLRTEDTGIHYCTTGYYFDYWGQGTTLTVSS
Turning to B7, the MFI in [1] worked out at 113; in experiment [2], 1120; in [4], 135; in experiment [5], 1190; in experiment [6] it was 1360; in experiment [7] it was 218. Moreover, the results for the MFI in experiment [8] and in experiment [9] were 1680 and 588, respectively. This molecule also had a Kd in [3] of 0.000597 nM. Further, the koff in experiment [3] turned out to be 1.46e-06 s⁻¹. Moreover, in experiment [3], the kon amounted to 2.45e+06 M⁻¹ s⁻¹.

B8: Hab015VL4VH6b-hFc (Fc fusion, part only; not given: VL-VH linker and human IgG1 Fc, not shown: another chain or arm of the molecule; a dimerising Fc or GST; small tags and cut ends)
VL: NIVLTQSPATLSLSPGERATLSCKASENVGTYVSWFQQKPGQSPRLLIYGASNRYTGIPARFSGSGSGTDFTLTISSLEPEDFAVYYCGQFYSFPSTFGGGTKVEIK
VH: EVQLVESGGGLVKPGGSLRLSCAASGITFSNFWMNWVRQAPEKGLEWVGQIRLKSDQYATHYAESVKGRFTISREDSKNTVYLQMNSLKTEDTAVYYCTTGYYFDYWGQGTTVTVSS
In experiment [3], B8 registered a Kd of 0.0131 nM, a koff of 2.5e-05 s⁻¹ and an on-rate (kon) of 1.91e+06 M⁻¹ s⁻¹.

B9: Hab006VL4VH2-hFc (Fc fusion, part only; not given: Linker and human IgG1 Fc, not shown: a dimerising Fc or GST)
chain, part: DIVMTQSPDSLAVSLGERATINCRATKSISKYLAWYQQKPGQTNKLLIFSGSTLQSGVPDRFSGSGSGTDFTLTISSLQAEDVAVYYCQQHHEYPYTFGGGTKVEIKEVQLVQSGAEVKKPGASVKVSCKASGYTFTSYWMHWVRQAPGQRLEWMGVIDPSDSLANYNQEFKGRVTLTVDTSASTAYMELSSLRSEDTAVYYCARDSTVVAPMDYWGQGTTVTVSS
With B9, the MFI in experiment [1] worked out at 117; in experiment [2], 429; in [4], 151; in [5] it was 445; in experiment [6], 494; in experiment [7], 250. Moreover, the MFI in [8] was 588; in experiment [9], 385.

B10: mab013 scFv-hFc (Fc fusion, part only; not given: linker and human IgG1 Fc, not shown: a dimerising Fc or GST)
scFv, part: DIVLTQSPASLAVSLGQRATISCRASKSVSTSGFSYMHWYQQKPGQPPKLLIYLASNLESGVPARFSGSGSGTDFTLNIHPVEEEDAATYYCQHSRELPFTFGSGTKLEIKQVQLQQSGAELVKPGASVRISCKASGYAFSNYWINWVKQRPGKGLEWIGQINPGDGDTIYNGKFKGKATLTADKSSSTAYMQLSSLTSEDSAVYFCEREGRNYGDFAYWGQGTTLTVSS
For B10, in experiment [3], the equilibrium dissociation constant (Kd) is 0.264 nM, the koff was found to be 0.00082 s⁻¹ and the kon is 3.11e+06 M⁻¹ s⁻¹.
